From paper PMC7510528 (Cell, 2020)

Molecular target: T1, RBD-Fc (RBD-SD1 part of SARS-CoV2-S1, amino acids 319-591, fused to the constant region of rabbit IgG1 heavy … (SARS-CoV-2 (reference sequence, …, UniProt P0DTC2)))
T1 construct: source: HEK293T, cell culture supernatant, immobilized onto plates via anti-rabbit IgG
Assay: ELISA
Conditions: partners not purified

B1: HK CV07-202 (antibody, V domains shown)
VH: EVQLVESGGGLIQPGGSLRLSCAASGFTVSSNYMSWVRQAPGKGLEWISVIYSGGSTFYADSVKGRFTISRDNSKNTLYLQMNSLRAEDTAVYYCARDLYYYGMDVWGQGTTVTVSS
VL: DIQLTQSPSFLSASVGDRVTITCRASQGISSYLAWYQQKPGKAPKLLIYAASTLQSGVPSRFSGSGSGTEFTLTISSLQPEDFATYYCQQLNNYSVTFGGGTKVEIK
binding result: binds
